Assay results reported in paper PMC10776578, “Epstein-Barr virus-driven B cell lymphoma mediated by a direct LMP1-TRAF6 complex” (Nature Communications, 2024).

B1: unnamed (parent)
chain 1: DHQIRELTAKMETQSMYVSELKRTIRTLEDKVAEIEAQQCNGIYIWKIGNFGMHLKCQEEEKPVVIHSPGFYTGKPGYKLCMRLHLQLPTAQRCANYISLFVHTMQGEYDSHLPWPFQGTIRLTILDQSEAPVRQNHEEIMDAKPELLAFQRPTIPRNPKGFGYVTFMHLEALRQRTFIKDDTLLVRCEVSTRFDMGSLRREGFQPRSTDAGV
chain 2: KKVAKKPTNKAPHPKQEPQEINFPDDLPGSNTAAPVQETLHGCQPVTQEDGKESRISVQERQ
B2: unnamed (parent)
chain 1: B1 chain 1
chain 2: LIWMYYHGQRHSDEHHHDDSLPHPQQATDDSGHESDSNSNEGRHHLLVSGAGDGPPLCSQNLGAPGGGPDNGPQDPDNTDDNGPQDPDNTDDNGPHDPLPQDPDNTDDNGPQDPDNTDDNGPHDPLPHSPSDSAGNDGGPPQLTEEVENKGGDQGPPLMTDGGGGHSHDSGHGGGDPHLPTLLLGSSGSGGDDDDPHGPVQLSYYD

Variants of: B1
Assay: AlphaScreen
Details: with partner chain of the complex shown; parent: 100; read off a plot

Variant	percent of parent
chain 1 DHQIRELTAKMETQSMYVSELKRTIRTLEDKVAEIEAQQCNGIYIWKIGNFGMHLKCQEEEKPVVIHSPGFYTGKPGYKLCMALHLQLPTAQRCANYISLFVHTMQGEYDSHLPWPFQGTIRLTILDQSEAPVRQNHEEIMDAKPELLAFQRPTIPRNPKGFGYVTFMHLEALRQRTFIKDDTLLVRCEVSTRFDMGSLRREGFQPRSTDAGV [chain 1 R83A]	85%
chain 1 DHQIRELTAKMETQSMYVSELKRTIRTLEDKVAEIEAQQCNGIYIWKIGNFGMHLKCQEEEKPVVIHSPGFYTGKPGYKLCMRLHLQLPTAQRCANYISLFVHTMQGEYDSHLPWPFQGTIRLTILDQSEAPVRQNHEEIMDAKPELLAFQRPTIPRNPKGFGAVTFMHLEALRQRTFIKDDTLLVRCEVSTRFDMGSLRREGFQPRSTDAGV [chain 1 Y164A]	1%
chain 1 DHQIRELTAKMETQSMYVSELKRTIRTLEDKVAEIEAQQCNGIYIWKIGNFGMHLKCQEEEKPVVIHSPGFYTGKPGYKLCMRLHLQLPTAQRCANYISLFVHTMQGEYDSHLPWPFQGTIRLTILDQSEAPVRQNHEEIMDAKPELLAFQRPTIPRNPAGFGYVTFMHLEALRQRTFIKDDTLLVRCEVSTRFDMGSLRREGFQPRSTDAGV [chain 1 K160A]	90%
chain 1 DHQIRELTAKMETQSMYVSELKRTIRTLEDKVAEIEAQQCNGIYIWKIGNFGMHLKCQEEEKPVVIHSPGFYTGKPGYKLCMRLHLQLPTAQRCANYISLFVHTMQGEYDSHLPWPFQGTIRLTILDQSEAPVRQNHEEIMDAKPELLAFQRPTIPRNPKGAGYVTFMHLEALRQRTFIKDDTLLVRCEVSTRFDMGSLRREGFQPRSTDAGV [chain 1 F162A]	1%

Variants of: B2
Assay: AlphaScreen
Details: with partner chain of the complex shown

Variant	Kd
chain 2 LIWMYYHGQRHSDEHHHDDSLPHPQQATDDSGHESDSNSNEGRHHLLVSGAGDGPPLCSQNLGAPGGGPDNGPQDPDNTDDNGPQDPDNTDDNGPHDPLPQDPDNTDDNGPQDPDNTDDNGPHDPLPHSPSDSAGNDGGPPQLTEEVENKGGDQGPPLMTDGGGGHSHDSGHGGGDPHLPTLLLGSSGSGGDDDDPHGPVQLSFYD [chain 2 Y204F]	21.7 nM

Same assay, conditions: with partner chain of the complex shown; 100 nM His-TRAF6; parent: 100; read off a plot

Variant	percent of parent
chain 2 Y204A	11%
chain 2 LIWMYYHGQRHSDEHHHDDSLPHAQAAADDSGHESDSNSNEGRHHLLVSGAGDGPPLCSQNLGAPGGGPDNGPQDPDNTDDNGPQDPDNTDDNGPHDPLPQDPDNTDDNGPQDPDNTDDNGPHDPLPHSPSDSAGNDGGPPQLTEEVENKGGDQGPPLMTDGGGGHSHDSGHGGGDPHLPTLLLGSSGSGGDDDDPHGPVQLSYYD [chain 2 P24A Q26A T28A]	83%
chain 2 Q201A	7%
chain 2 LIWMYYHGQRHSDEHHHDDSLPHPQQATDDSGHESDSNSNEGRHHLLVSGAGDGPPLCSQNLGAPGGGPDNGPQDPDNTDDNGPQDPDNTDDNGPHDPLPQDPDNTDDNGPQDPDNTDDNGPHDPLPHSPSDSAGNDGGPPQLTEEVENKGGDQGPPLMTDGGGGHSHDSGHGGGDPHLPTLLLGSSGSGGDDDDPHGAVQLSYYD [chain 2 P199A]	18%

Same assay, conditions: with partner chain of the complex shown; 300 nM His-TRAF6; parent: 100; read off a plot

Variant	percent of parent
chain 2 Y204A	10%
chain 2 LIWMYYHGQRHSDEHHHDDSLPHAQAAADDSGHESDSNSNEGRHHLLVSGAGDGPPLCSQNLGAPGGGPDNGPQDPDNTDDNGPQDPDNTDDNGPHDPLPQDPDNTDDNGPQDPDNTDDNGPHDPLPHSPSDSAGNDGGPPQLTEEVENKGGDQGPPLMTDGGGGHSHDSGHGGGDPHLPTLLLGSSGSGGDDDDPHGPVQLSYYD [chain 2 P24A Q26A T28A]	98%
chain 2 Q201A	6%
chain 2 LIWMYYHGQRHSDEHHHDDSLPHPQQATDDSGHESDSNSNEGRHHLLVSGAGDGPPLCSQNLGAPGGGPDNGPQDPDNTDDNGPQDPDNTDDNGPHDPLPQDPDNTDDNGPQDPDNTDDNGPHDPLPHSPSDSAGNDGGPPQLTEEVENKGGDQGPPLMTDGGGGHSHDSGHGGGDPHLPTLLLGSSGSGGDDDDPHGAVQLSYYD [chain 2 P199A]	19%

Same assay, conditions: with partner chain of the complex shown; 1000 nM His-TRAF6; parent: 100; read off a plot

Variant	percent of parent
chain 2 Y204A	9%
chain 2 LIWMYYHGQRHSDEHHHDDSLPHAQAAADDSGHESDSNSNEGRHHLLVSGAGDGPPLCSQNLGAPGGGPDNGPQDPDNTDDNGPQDPDNTDDNGPHDPLPQDPDNTDDNGPQDPDNTDDNGPHDPLPHSPSDSAGNDGGPPQLTEEVENKGGDQGPPLMTDGGGGHSHDSGHGGGDPHLPTLLLGSSGSGGDDDDPHGPVQLSYYD [chain 2 P24A Q26A T28A]	92%
chain 2 Q201A	4%
chain 2 LIWMYYHGQRHSDEHHHDDSLPHPQQATDDSGHESDSNSNEGRHHLLVSGAGDGPPLCSQNLGAPGGGPDNGPQDPDNTDDNGPQDPDNTDDNGPHDPLPQDPDNTDDNGPQDPDNTDDNGPHDPLPHSPSDSAGNDGGPPQLTEEVENKGGDQGPPLMTDGGGGHSHDSGHGGGDPHLPTLLLGSSGSGGDDDDPHGAVQLSYYD [chain 2 P199A]	21%

Same assay, conditions: with partner chain of the complex shown; parent: 100; read off a plot

Variant	percent of parent
chain 1 DHQIRELTAKMETQSMYVSELKRTIRTLEDKVAEIEAQQCNGIYIWKIGNFGMHLKCQEEEKPVVIHSPGFYTGKPGYKLCMRLHLQLPTAQRCANYISLFVHTMQGEYDSHLPWPFQGTIRLTILDQSEAPVRQNHEEIMDAKPELLAFQRPTIPRNPAGFGYVTFMHLEALRQRTFIKDDTLLVRCEVSTRFDMGSLRREGFQPRSTDAGV [chain 1 K160A]	100%
